Assay results published in PMC10040874 (2023).

Assays:
[1] = target: D. rerio CNNM CBS-pair domain (D. rerio); assay: ITC
[2] = target: D. rerio CNNM CBS-pair domain (D. rerio); assay: ITC; remark: listed apart in the source
[3] = target: T1, Toxoplasma gondii CNNM CBS-pair domain (T. gondii); assay: ITC
T1 chain: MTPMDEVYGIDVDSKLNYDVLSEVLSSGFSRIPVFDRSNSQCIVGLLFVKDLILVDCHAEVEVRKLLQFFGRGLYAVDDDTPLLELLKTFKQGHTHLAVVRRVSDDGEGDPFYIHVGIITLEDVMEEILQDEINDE

[4] = target: T1, Toxoplasma gondii CNNM CBS-pair domain; assay: ITC
[5] = target: T2, human CNNM3 CBS-pair domain (human, UniProt Q8NE01 309-452); assay: ITC
[6] = target: T2, human CNNM3 CBS-pair domain; assay: ITC; remark: listed apart in the source
[7] = target: Drosophila melanogaster CNNM CBS-pair domain, GST-tagged (D. melanogaster, UniProt A0A0B7P9G0 362-515); assay: ITC
[8] = target: M. brevicollis CNNM CBS-pair domain (M. brevicollis); assay: ITC
[9] = target: M. brevicollis CNNM CBS-pair domain (M. brevicollis); assay: ITC; remark: listed apart in the source
[10] = target: T3, CBS-pair domain of a C. elegans CNNM protein (the one of two expressed that bound with 13 μM affinity) (C. elegans); assay: ITC; CNNM3
T3 chain: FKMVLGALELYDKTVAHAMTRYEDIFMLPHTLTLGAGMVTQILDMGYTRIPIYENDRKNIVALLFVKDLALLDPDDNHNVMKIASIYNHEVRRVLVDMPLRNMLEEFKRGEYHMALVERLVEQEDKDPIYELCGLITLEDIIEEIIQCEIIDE

[11] = target: T4, CBS-pair domain of a C. elegans CNNM protein (the one of two expressed that bound with 1 μM affinity) (C. elegans); assay: ITC; CNNM1
T4 chain: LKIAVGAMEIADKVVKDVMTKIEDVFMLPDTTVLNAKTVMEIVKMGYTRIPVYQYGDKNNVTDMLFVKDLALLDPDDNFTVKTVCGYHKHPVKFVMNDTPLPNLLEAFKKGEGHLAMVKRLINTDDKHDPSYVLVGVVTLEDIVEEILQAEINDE

[12] = target: T4, CBS-pair domain of a C. elegans CNNM …; assay: ITC; CNNM1

D. rerio CNNM CBS-pair domain (D. rerio), sequence (chain, as listed by the source): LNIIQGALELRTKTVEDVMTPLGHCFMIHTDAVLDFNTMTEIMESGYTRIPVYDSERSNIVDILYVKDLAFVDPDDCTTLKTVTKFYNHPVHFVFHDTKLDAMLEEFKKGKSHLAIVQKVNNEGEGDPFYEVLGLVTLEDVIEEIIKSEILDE
T2 sequence (Q8NE01 309-452): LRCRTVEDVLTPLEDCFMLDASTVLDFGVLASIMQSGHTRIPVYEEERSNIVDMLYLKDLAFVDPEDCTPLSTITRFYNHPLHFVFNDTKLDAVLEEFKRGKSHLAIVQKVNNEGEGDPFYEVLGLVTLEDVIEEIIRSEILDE
Drosophila melanogaster CNNM CBS-pair domain, GST-tagged, sequence (A0A0B7P9G0 362-515): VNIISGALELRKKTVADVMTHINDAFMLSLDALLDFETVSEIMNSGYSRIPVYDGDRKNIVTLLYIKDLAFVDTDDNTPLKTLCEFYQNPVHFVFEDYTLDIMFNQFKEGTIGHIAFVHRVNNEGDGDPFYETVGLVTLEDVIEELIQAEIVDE

B1: D. rerio PRL (enzyme)
chain: MARMNRPAPVEVCYKNMRFLITHNPTNSTLSSFIEDLKKYGVTTVVRVCEITYDKTPLEKNGITVVDWPFDDGAPPPSKVVEDWLSLLKRRFIEEPGCCVAVHCVAGLGRAPVLVAVALIESGMKYEDAIQFIRQKRRGAINSKQLTYLEKYRPKQRLRYKHPHIFKNK
modifications: Table S2 says CNNM4 only; the choice of cnnm4a over cnnm4b is assumed
What does the source list for B1?
Kd [1]: 17 nM; Ka [2]: 5.84e+07 M⁻¹

B2: Toxoplasma gondii PRL (enzyme)
chain: MNEASSCLSPEEPRSCDNREEGTTRELRSGSHMGKGKLGHSPTTSHSELTREGSSVDCGRRGGNEEKTEEKRSEKAGAERECERKTQRPRFDGDGSSLSPRSNASRGSACSTRSCESHEKVGRTLSGDSTGRDGVCSVSSARQPSLRRKSAAEEVGREVKVDGKALDSQIELVRTKNRGKSEVTRLGRGAGSACAVSVSPLGTARHVPSGRQPSERRQSAKPLTKLSSSSSSHNKTTMVPTVMNTPTRIEAGRQKFLIFDAPSQENLPAYIEEMRAYEVTDLVRTCERTYDDKTVLASGIRPHELIFPDGEAPPDDVIDEWLTLCNAVSQQRGAIAIHCVAGLGRAPVLVAIALIEKGMDPMDAIMFIRERRKGAINRRQLQFLKGYKRRSNYKKCCGGR
For B2, which Kd [3] is on record?
The Kd was 7400 nM.

What about the Ka [4] of the same binder?
Its Ka is 134000 M⁻¹.

B3: human PRL2 (enzyme)
chain: MNRPAPVEISYENMRFLITHNPTNATLNKFTEELKKYGVTTLVRVCDATYDKAPVEKEGIHVLDWPFDDGAPPPNQIVDDWLNLLKTKFREEPGCCVAVHCVAGLGRAPVLVALALIECGMKYEDAVQFIRQKRRGAFNSKQLLYLEKYRPKMRLRFRDTNGH
For B3, which Kd [5] is on record?
Its Kd is 28 nM.

And the Ka [6]?
Its Ka is 3.63e+07 M⁻¹.

B4: Drosophila melanogaster PRL (wild-type) (enzyme)
chain: MSITMRQKDLRPAPALIEYKGMKFLITDRPSDITINHYIMELKKNNVNTVVRVCEPSYNTDELETQGITVKDLAFEDGTFPPQQVVDEWFEVLKDKYQQNPEACVAVHCVAGLGRAPVLVALALIELGLKYEAAVEMIRDKRRGAINAKQLSFLEKYKPKARLKHKNGHKNSCSVQ
How did the Ka [7] turn out when B4 was run?
The Ka was 2.84e+06 M⁻¹.

B5: M. brevicollis PRL (enzyme)
chain: MARNHISKISHKNMRFLITDRPSDATVEDYVRVLQQENVVALCRVCEPSYDVSKLKDNGIEVHDWAFQDGAPPPDEVIDNWLRLCRETFAQHPNGFVAVHCVAGLGRAPVLVALSLIEAGMSSEDAVLFIREKRHGAINRRQLQFLQDYKRRGKAKG
B5 was tested. Which Kd [8] did it give?
Its Kd is 300 nM.

And the Ka [9]?
Its Ka is 3.24e+06 M⁻¹.

B6: Caenorhabditis elegans PRL (enzyme)
chain: MSAAVQKRASTNTVAATTYFKPAPSEIAWGKMRFLITDRPNNSSIQSYIEELEKHGARAVVRVCEPTYDTLALKEAGIDVLDWQFSDGSPPPPEVIKSWFQLCMTSFKEHPDKSIAVHCVAGLGRAPVLVAIALIEAGMKYEDAVEMIRTQRRGALNQKQLKFLETYKANGELRRLRGNVDGKQKSCCIQ
modifications: Assigning the 13 uM binder to CNNM3 is inferred from listing order (Figure 4 not in text)
How did the Kd [10] turn out when B6 was run?
Its Kd is 970 nM.

B7: Caenorhabditis elegans PRL (enzyme)
chain: B6 chain
modifications: Table S2: only CNNM1 (376-530) and CNNM3 (375-527) gave protein; assigning the 1 uM binder to CNNM1 is inferred from listing order (Figure 4 not in text)
B7 was tested. Which Kd [11] did it give?
The Kd was 13000 nM.

And the Ka [12]?
The Ka was 76100 M⁻¹.
